Measured values taken from the supplement of paper PMC9112550, “Optimization of the antimicrobial peptide Bac7 by deep mutational scanning” (BMC Biology, 2022).

Test system: Escherichia coli TOP10
Test: shrunken log2 fold change of peptide-encoding DNA abundance (4.5 h post-induction vs induction); higher = less antimicrobial activity (less host growth inhibition)
Conditions: time post-induction: 4.5 h; library: site-saturation at positions 5, 18, 19, 20
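Further: peptides expressed intracellularly from a pBAD plasmid library in pooled LB shake-flask culture, induced with 0.3% L-arabinose, DNA abundance read by NGS, three biological replicates, DESeq2 with apeglm shrinkage.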

Sequence | shrunken log2 fold change
RRIRWRPPRLPRPRPRPLNLPRP | -0.184
RRIRSRPPRLPRPRPRPVPHPRP | 0.0775
RRIRIRPPRLPRPRPRPEADPRP | 0.196
RRIRFRPPRLPRPRPRPHVCPRP | -0.0299
RRIRIRPPRLPRPRPRPIKEPRP | -0.021
RRIRLRPPRLPRPRPRPGPDPRP | 0.953
RRIRTRPPRLPRPRPRPWNQPRP | -0.543
RRIRCRPPRLPRPRPRPVYWPRP | 0.134
RRIRHRPPRLPRPRPRPTATPRP | 0.39
RRIRSRPPRLPRPRPRPDGFPRP | -0.0636
RRIRDRPPRLPRPRPRPIVAPRP | -0.0201
RRIRPRPPRLPRPRPRPASYPRP | -0.212
RRIRKRPPRLPRPRPRPTTFPRP | 0.18
RRIRCRPPRLPRPRPRPKDAPRP | 0.183
RRIRVRPPRLPRPRPRPEIFPRP | 0.00503
RRIRHRPPRLPRPRPRPQDCPRP | -0.01
RRIRPRPPRLPRPRPRPRQRPRP | 0.382
RRIRIRPPRLPRPRPRPNLFPRP | -0.512
RRIRLRPPRLPRPRPRPMWAPRP | 0.0661
RRIRERPPRLPRPRPRPKQWPRP | 0.0081
RRIRKRPPRLPRPRPRPKQEPRP | -0.104
RRIRGRPPRLPRPRPRPKMDPRP | 0.738

Sequence | shrunken log2 fold change
RRIRHRPPRLPRPRPRPPSGPRP | 0.771
RRIRPRPPRLPRPRPRPQQDPRP | -0.301
RRIRYRPPRLPRPRPRPKWFPRP | -0.87
RRIRWRPPRLPRPRPRPEAKPRP | 0.0319
RRIRCRPPRLPRPRPRPEMLPRP | -0.077
RRIRDRPPRLPRPRPRPPVVPRP | -0.0109
RRIRYRPPRLPRPRPRPVHEPRP | 0.0155
RRIRFRPPRLPRPRPRPYQHPRP | -0.898
RRIRRRPPRLPRPRPRPVWCPRP | 0.273
RRIRSRPPRLPRPRPRPDNEPRP | -0.0519
RRIRTRPPRLPRPRPRPDMEPRP | -0.132
RRIRMRPPRLPRPRPRPLWNPRP | -0.182
RRIRRRPPRLPRPRPRPGKYPRP | -0.307
RRIRCRPPRLPRPRPRPDPFPRP | -0.187
RRIRDRPPRLPRPRPRPQQLPRP | -0.0103
RRIRYRPPRLPRPRPRPGKMPRP | 0.00758
RRIRVRPPRLPRPRPRPEHWPRP | 0.28
RRIRDRPPRLPRPRPRPHLSPRP | 0.0479
RRIRDRPPRLPRPRPRPVTCPRP | -0.00663
RRIRKRPPRLPRPRPRPCTNPRP | -0.0404
RRIRARPPRLPRPRPRPWSTPRP | 0.0839
RRIRKRPPRLPRPRPRPGGAPRP | 0.729
